Laboratory results reported in paper PMC11059090.
pKd: −log10 of the molar value.

Assays:
[1] = system: ALEXA-594-labeled rabbit anti-human IgG Fc-specific monoclonal (594-RAH) (rabbit); assay: FRET titration; conditions: apparent Kd, ITC: PBS (10 mM phosphate, 2.7 mM KCl, 137 mM NaCl, pH 7.4), 25 C, FRET: Ex 550 nm, Em 620/670 nm, titration buffer not stated
[2] = system: purified whole IgG from rabbit serum (polyclonal) (rabbit); assay: ITC; conditions: unlabeled IgG; 80 uM aptamer into 2.5 uM IgG; ITC: PBS (10 mM phosphate, 2.7 mM KCl, 137 mM NaCl, pH 7.4), 25 C; FRET: Ex 550 nm, Em 620/670 nm, titration buffer not stated
[3] = system: rabbit anti-human IgG Fc-specific monoclonal (RAH) (rabbit); assay: ITC; conditions: unlabeled IgG; 80 uM aptamer into 2.5 uM IgG; ITC: PBS (10 mM phosphate, 2.7 mM KCl, 137 mM NaCl, pH 7.4), 25 C; FRET: Ex 550 nm, Em 620/670 nm, titration buffer not stated

“CCAACCACACATCCTTCCATCGACATGGACCCACCGTTCC [AptaShield DNA aptamer]” showed a pKd ([1]; RAH-594 titrated into 200 nM aptamer) of 7.02, a pKd ([1]; aptamer titrated into 200 nM RAH-594) of 7.35 and a pKd [2] of 6.05. It also gave a pKd [3] of 6.65.
